The values that follow come from the supplement of paper PMC5998384.

Data set [1] concerns HeLa Kyoto. Description: solubility in G1/S (NP-40 vs SDS abundance) (log2 ratio); higher = more soluble. To be noted: cell cycle stage: G1/S.
For data set [2], the system named is HeLa Kyoto. The data set is described as follows: melting temperature (median over replicates), in situ; higher = more thermally stable.
For data set [3], the system named is HeLa Kyoto. Description: solubility change mitosis vs G1/S (difference of NP-40 vs SDS log2 ratios) (log2 ratio difference); higher = more soluble in mitosis.
Data set [4] relates to HeLa Kyoto. The data set is described as follows: thermal stability score vs G1/S (z-score of summed log2 fold changes over temperatures); higher = more thermally stable than in G1/S.
[5] abbreviates: cell cycle stage: early G1 (4.5 h after nocodazole release).
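For melting temperature (median over replicates), in situ in this document: HeLa Kyoto cells synchronized by double thymidine or nocodazole block, proteins quantified by TMT10plex mass spectrometry, three independent biological replicates.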
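For solubility change mitosis vs G1/S (difference of NP-40 vs SDS log2 ratios) in this document: synchronized HeLa Kyoto cells (double thymidine block for G1/S, nocodazole release for mitosis), protein amounts in NP-40 versus SDS lysates quantified by mass spectrometry, three biological replicates.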
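For solubility in G1/S (NP-40 vs SDS abundance) in this document: HeLa Kyoto cells arrested at G1/S by double thymidine block, proteins quantified by TMT10plex mass spectrometry in mild NP-40 versus SDS extracts, three biological replicates.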
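For thermal stability score vs G1/S (z-score of summed log2 fold changes over temperatures) in this document: synchronized HeLa Kyoto cells, proteins quantified by TMT10plex mass spectrometry, three biological replicates, mitosis taken 0.5 h after nocodazole release, G1/S directly after double thymidine block.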

Sequence of PSMA6 (chain, as listed by the source): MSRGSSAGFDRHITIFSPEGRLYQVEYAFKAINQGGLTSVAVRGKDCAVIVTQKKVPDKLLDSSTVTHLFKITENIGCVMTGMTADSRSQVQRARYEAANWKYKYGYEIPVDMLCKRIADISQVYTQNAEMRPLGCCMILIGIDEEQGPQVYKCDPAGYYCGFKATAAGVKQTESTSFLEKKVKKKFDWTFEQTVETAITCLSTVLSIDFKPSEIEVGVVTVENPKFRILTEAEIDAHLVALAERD

Take “MAEAAAAAGGTGLGAGASYGSAADRDRDPDPDRAGRRLRVLSGHLLGRPREALSTNECKARRAASAATAAPTATPAAQESGTIPKKRQEVMKWNGWGYNDSKFIFNKKGQIELTGKRYPLSGMGLPTFKEWIQNTLGVNVEHKTTSKASLNPSDTPPSVVNEDFLHDLKETNISYSQEADDRVFRAHGHCLHEIFLLREGMFERIPDIVLWPTCHDDVVKIVNLACKYNLCIIPIGGGTSVSYGLMCPADETRTIISLDTSQMNRILWVDENNLTAHVEAGITGQELERQLKESGYCTGHEPDSLEFSTVGGWVSTRASGMKKNIYGNIEDLVVHIKMVTPRGIIEKSCQGPRMSTGPDIHHFIMGSEGTLGVITEATIKIRPVPEYQKYGSVAFPNFEQGVACLREIAKQRCAPASIRLMDNKQFQFGHALKPQVSSIFTSFLDGLKKFYITKFKGFDPNQLSVATLLFEGDREKVLQHEKQVYDIAAKFGGLAAGEDNGQRGYLLTYVIAYIRDLALEYYVLGESFETSAPWDRVVDLCRNVKERITRECKEKGVQFAPFSTCRVTQTYDAGACIYFYFAFNYRGISDPLTVFEQTEAAAREEILANGGSLSHHHGVGKLRKQWLKESISDVGFGMLKSVKEYVDPNNIFGNRNLL [AGPS]”: the “solubility in G1/S (log2)” value in the data set with HeLa Kyoto [1] is -0.0393. Further, the melting temperature in the data set on HeLa Kyoto [2] (cell cycle stage: G1/S) was found to be 52.8 °C; with HeLa Kyoto [2] (cell cycle stage: mitosis), 52.9 °C. Moreover, in the data set with HeLa Kyoto [3], the “solubility change mitosis (log2)” value was -0.139. For the same substance, the thermal stability score is 0.703 with HeLa Kyoto [4] (setting [5]) and 1.37 in the data set on HeLa Kyoto [4] (cell cycle stage: mitosis).

For the substance “MDLRQFLMCLSLCTAFALSKPTEKKDRVHHEPQLSDKVHNDAQSFDYDHDAFLGAEEAKTFDQLTPEESKERLGKIVSKIDGDKDGFVTVDELKDWIKFAQKRWIYEDVERQWKGHDLNEDGLVSWEEYKNATYGYVLDDPDPDDGFNYKQMMVRDERRFKMADKDGDLIATKEEFTAFLHPEEYDYMKDIVVQETMEDIDKNADGFIDLEEYIGDMYSHDGNTDEPEWVKTEREQFVEFRDKNRDGKMDKEETKDWILPSDYDHAEAEARHLVYESDQNKDGKLTKEEIVDKYDLFVGSQATDFGEALVRHDEF [CALU]”, the “solubility in G1/S (log2)” value with HeLa Kyoto [1] turned out to be 0.281. The melting temperature is 57.8 °C in the data set with HeLa Kyoto [2] (cell cycle stage: G1/S) and 60.3 °C in the data set with HeLa Kyoto [2] (cell cycle stage: mitosis). In the data set with HeLa Kyoto [3], the “solubility change mitosis (log2)” value stood at 0.167. Also, the results for the thermal stability score in the data set on HeLa Kyoto [4] (setting [5]) and in the data set on HeLa Kyoto [4] (cell cycle stage: mitosis) were 1.04 and -0.549, respectively.

Consider “MNPTLILAAFCLGIASATLTFDHSLEAQWTKWKAMHNRLYGMNEEGWRRAVWEKNMKMIELHNQEYREGKHSFTMAMNAFGDMTSEEFRQVMNGFQNRKPRKGKVFQEPLFYEAPRSVDWREKGYVTPVKNQGQCGSCWAFSATGALEGQMFRKTGRLISLSEQNLVDCSGPQGNEGCNGGLMDYAFQYVQDNGGLDSEESYPYEATEESCKYNPKYSVANDTGFVDIPKQEKALMKAVATVGPISVAIDAGHESFLFYKEGIYFEPDCSSEDMDHGVLVVGYGFESTESDNNKYWLVKNSWGEEWGMGGYVKMAKDRRNHCGIASAASYPTV [CTSL]”, for which, in the data set with HeLa Kyoto [1], the “solubility in G1/S (log2)” value was -0.176. For the same substance, the melting temperature was 53.9 °C in the data set with HeLa Kyoto [2] (cell cycle stage: G1/S) and 55 °C in the data set with HeLa Kyoto [2] (cell cycle stage: mitosis). Also, in the data set with HeLa Kyoto [3], the “solubility change mitosis (log2)” value is 0.0996. For the same substance, the thermal stability score turned out to be 1.47 in the data set with HeLa Kyoto [4] (setting [5]) and 1.22 in the data set with HeLa Kyoto [4] (cell cycle stage: mitosis).

In the case of “MAAVLNAERLEVSVDGLTLSPDPEERPGAEGAPLLPPPLPPPSPPGSGRGPGASGEQPEPGEAAAGGAAEEARRLEQRWGFGLEELYGLALRFFKEKDGKAFHPTYEEKLKLVALHKQVLMGPYNPDTCPEVGFFDVLGNDRRREWAALGNMSKEDAMVEFVKLLNRCCHLFSTYVASHKIEKEEQEKKRKEEEERRRREEEERERLQKEEEKRRREEEERLRREEEERRRIEEERLRLEQQKQQIMAALNSQTAVQFQQYAAQQYPGNYEQQQILIRQLQEQHYQQYMQQLYQVQLAQQQAALQKQQEVVVAGSSLPTSSKVNATVPSNMMSVNGQAKTHTDSSEKELEPEAAEEALENGPKESLPVIAAPSMWTRPQIKDFKEKIQQDADSVITVGRGEVVTVRVPTHEEGSYLFWEFATDNYDIGFGVYFEWTDSPNTAVSVHVSESSDDDEEEEENIGCEEKAKKNANKPLLDEIVPVYRRDCHEEVYAGSHQYPGRGVYLLKFDNSYSLWRSKSVYYRVYYTR [ACBD3]”, in the data set on HeLa Kyoto [1], the “solubility in G1/S (log2)” value was -0.138. In addition, the melting temperature in the data set on HeLa Kyoto [2] (cell cycle stage: G1/S) was 50.4 °C; with HeLa Kyoto [2] (cell cycle stage: mitosis), 50.2 °C. Also, in the data set with HeLa Kyoto [3], the “solubility change mitosis (log2)” value was -0.137. Further, the thermal stability score with HeLa Kyoto [4] (setting [5]) is -1.26; in the data set on HeLa Kyoto [4] (cell cycle stage: mitosis) it was -0.756.

“MGAYLSQPNTVKCSGDGVGAPRLPLPYGFSAMQGWRVSMEDAHNCIPELDSETAMFSVYDGHGGEEVALYCAKYLPDIIKDQKAYKEGKLQKALEDAFLAIDAKLTTEEVIKELAQIAGRPTEDEDEKEKVADEDDVDNEEAALLHEEATMTIEELLTRYGQNCHKGPPHSKSGGGTGEEPGSQGLNGEAGPEDSTRETPSQENGPTAKAYTGFSSNSERGTEAGQVGEPGIPTGEAGPSCSSASDKLPRVAKSKFFEDSEDESDEAEEEEEDSEECSEEEDGYSSEEAENEEDEDDTEEAEEDDEEEEEEMMVPGMEGKEEPGSDSGTTAVVALIRGKQLIVANAGDSRCVVSEAGKALDMSYDHKPEDEVELARIKNAGGKVTMDGRVNGGLNLSRAIGDHFYKRNKNLPPEEQMISALPDIKVLTLTDDHEFMVIACDGIWNVMSSQEVVDFIQSKISQRDENGELRLLSSIVEELLDQCLAPDTSGDGTGCDNMTCIIICFKPRNTAELQPESGKRKLEEVLSTEGAEENGNSDKKKKAKRD [PPM1G]”: in the data set with HeLa Kyoto [1], the “solubility in G1/S (log2)” value came to 0.104. In addition, the melting temperature is 48.4 °C in the data set on HeLa Kyoto [2] (cell cycle stage: G1/S) and 49.4 °C with HeLa Kyoto [2] (cell cycle stage: mitosis). Further, the “solubility change mitosis (log2)” value in the data set with HeLa Kyoto [3] is -0.0729. The thermal stability score in the data set on HeLa Kyoto [4] (setting [5]) worked out at 2.65; with HeLa Kyoto [4] (cell cycle stage: mitosis), 8.41.

Consider “MIPNGYLMFEDENFIESSVAKLNALRKSGQFCDVRLQVCGHEMLAHRAVLACCSPYLFEIFNSDSDPHGISHVKFDDLNPEAVEVLLNYAYTAQLKADKELVKDVYSAAKKLKMDRVKQVCGDYLLSRMDVTSCISYRNFASCMGDSRLLNKVDAYIQEHLLQISEEEEFLKLPRLKLEVMLEDNVCLPSNGKLYTKVINWVQRSIWENGDSLEELMEEVQTLYYSADHKLLDGNLLDGQAEVFGSDDDHIQFVQKKPPRENGHKQISSSSTGCLSSPNATVQSPKHEWKIVASEKTSNNTYLCLAVLDGIFCVIFLHGRNSPQSSPTSTPKLSKSLSFEMQQDELIEKPMSPMQYARSGLGTAEMNGKLIAAGGYNREECLRTVECYNPHTDHWSFLAPMRTPRARFQMAVLMGQLYVVGGSNGHSDDLSCGEMYDSNIDDWIPVPELRTNRCNAGVCALNGKLYIVGGSDPYGQKGLKNCDVFDPVTKLWTSCAPLNIRRHQSAVCELGGYLYIIGGAESWNCLNTVERYNPENNTWTLIAPMNVARRGAGVAVLNGKLFVCGGFDGSHAISCVEMYDPTRNEWKMMGNMTSPRSNAGIATVGNTIYAVGGFDGNEFLNTVEVYNLESNEWSPYTKIFQF [IVNS1ABP]”, for which, in the data set with HeLa Kyoto [1], the “solubility in G1/S (log2)” value was -0.0792. In addition, the melting temperature with HeLa Kyoto [2] (cell cycle stage: G1/S) came out at 50.7 °C; in the data set with HeLa Kyoto [2] (cell cycle stage: mitosis) it was 49.2 °C. For the same substance, the “solubility change mitosis (log2)” value with HeLa Kyoto [3] was -0.0597. The results for the thermal stability score with HeLa Kyoto [4] (setting [5]) and with HeLa Kyoto [4] (cell cycle stage: mitosis) were -2.78 and -1.82, respectively.

For the substance “MATEQRPFHLVVFGASGFTGQFVTEEVAREQVDPERSSRLPWAVAGRSREKLQRVLEKAALKLGRPTLSSEVGIIICDIANPASLDEMAKQATVVLNCVGPYRFYGEPVIKACIENGASCIDISGEPQFLELMQLKYHEKAADKGVYIIGSSGFDSIPADLGVIYTRNKMNGTLTAVESFLTIHSGPEGLSIHDGTWKSAIYGFGDQSNLRKLRNVSNLKPVPLIGPKLKRRWPISYCRELKGYSIPFMGSDVSVVRRTQRYLYENLEESPVQYAAYVTVGGITSVIKLMFAGLFFLFFVRFGIGRQLLIKFPWFFSFGYFSKQGPTQKQIDAASFTLTFFGQGYSQGTGTDKNKPNIKICTQVKGPEAGYVATPIAMVQAAMTLLSDASHLPKAGGVFTPGAAFSKTKLIDRLNKHGIEFSVISSSEV [SCCPDH]”, the “solubility in G1/S (log2)” value in the data set on HeLa Kyoto [1] was -0.086. In addition, the melting temperature with HeLa Kyoto [2] (cell cycle stage: G1/S) was determined as 53.2 °C; in the data set on HeLa Kyoto [2] (cell cycle stage: mitosis) it was 54 °C. Besides, the “solubility change mitosis (log2)” value in the data set with HeLa Kyoto [3] stood at 0.0063. In addition, the thermal stability score in the data set with HeLa Kyoto [4] (setting [5]) is 0.42; with HeLa Kyoto [4] (cell cycle stage: mitosis) it was -2.32.

Turning to PSMA6, the “solubility in G1/S (log2)” value in the data set with HeLa Kyoto [1] was -0.0362. Further, the melting temperature came to 62.9 °C with HeLa Kyoto [2] (cell cycle stage: G1/S) and 60.9 °C in the data set on HeLa Kyoto [2] (cell cycle stage: mitosis). In addition, the “solubility change mitosis (log2)” value in the data set with HeLa Kyoto [3] turned out to be 0.0779. Also, the thermal stability score with HeLa Kyoto [4] (setting [5]) was -1.86; in the data set on HeLa Kyoto [4] (cell cycle stage: mitosis) it was -3.6.
